Laboratory results reported in article PMC7583906, “Functional Recovery of a GCDH Variant Associated to Severe Deflavinylation—Molecular Insights into Potential Beneficial Effects of Riboflavin Supplementation in Glutaric Aciduria-Type I Patients” (International Journal of Molecular Sciences, 2020).
Where a chain is given by its changes, count along the chain named. Where “and” joins values, the source holds several entries; their conditions need not be identical. Equal values may be shown once.

B1: glutaryl-coenzyme A (CoA) dehydrogenase, wild-type (GCDH-WT) (enzyme, human)
chain: EFDWQDPLVLEEQLTTDEILIRDTFRTYCQERLMPRILLANRNEVFHREIISEMGELGVLGPTIKGYGCAGVSSVAYGLLARELERVDSGYRSAMSVQSSLVMHPIYAYGSEEQRQKYLPQLAKGELLGCFGLTEPNSGSDPSSMETRAHYNSSNKSYTLNGTKTWITNSPMADLFVVWARCEDGCIRGFLLEKGMRGLSAPRIQGKFSLRASATGMIIMDGVEVPEENVLPGASSLGGPFGCLNNARYGIAWGVLGASEFCLHTARQYALDRMQFGVPLARNQLIQKKLADMLTEITLGLHACLQLGRLKDQDKAAPEMVSLLKRNNCGKALDIARQARDMLGGNGISDEYHVIRHAMNLEAVNTYEGTHDIHALILGRAITGIQAFTASK
notes: human glutaryl-CoA dehydrogenase (GCDH), recombinant; source: E. coli BL21 (DE3), soluble extract incubated overnight with excess FAD, purified (HisTrap HP)
B2: GCDH-p.Val400Met clinical variant (enzyme, human)
chain: B1 chain with V354M
notes: human glutaryl-CoA dehydrogenase (GCDH), disease variant p.Val400Met of glutaric aciduria type I, recombinant; The assays tell the states apart; also called holo GCDH-p.Val400Met; apo GCDH-p.Val400Met; source: E. coli BL21 (DE3), purified (HisTrap HP); holo form from soluble extract incubated overnight with excess FAD, apo form without the FAD incubation

Molecular target: the molecule itself
Assay: SEC; Superdex 200 10/300 GL, 10 mM HEPES pH 7.8, 150 mM NaCl, typically 0.5 mg applied; holoprotein (FAD bound) as purified; Gaussian deconvolution of the profile

| Protein | stoichiometry N |
| --- | --- |
| B1 | 4 |
| B2 | 4 and 2 |
